Data: patent US20040107456A1 (ACADEMIA SINICA, published 2004)

What was measured:
[1] = target: T1, GBD-OsMYBS2 fusion protein (yeast; rice); assay: two-hybrid in barley aleurone cells, luciferase reporter; similar results in yeast two-hybrid
T1 construct: Two-hybrid bait
Description: (§1) In c-Myb, R2 and R3 bind to specific DNA sequences cooperatively. To test the possibility that OsMYBS binds DNA as dimers, homologous and heterologous interactions among OsMYBS proteins were analyzed using a two-hybrid system in barley aleurone cells. The full-length OsMYBS sequences were individually fused at the C-terminus of GAD or GBD. The GAD-OsMYBS and GBD-OsMYBS chimeric genes were fused downstream of the Ubi promoter and used as effector constructs. A DNA fragment containing five tandem repeats of UAS (5×UAS) was fused upstream of the CaMV35S minimal promoter-Luc chimeric gene and used as a reporter construct. The barley half seeds were particle-bombarded simultaneously with two effector plasmids, each containing GAD-OsMYBS and GBD-OsMYBS fusion genes, and the reporter plasmid. The bombarded half seeds were incubated in buffer without glucose for 24 h, and luciferase activity was determined. […] Except that the background level of reporter gene expression in the presence of GBD-OsMYBS1 alone is too high to detect the interactions between GBD-OsMYBS1 and GAD-OsMYBS proteins, similar results were obtained with the yeast two-hybrid experiments.

[2] = target: T2, GBD-OsMYBS3 fusion protein (yeast; rice); assay: as above
T2 construct: Two-hybrid bait
Description: as §1

[3] = target: T3, GBD-OsMYBS1 fusion protein (yeast; rice, UniProt P04386 1-147); assay: two-hybrid in barley aleurone cells, luciferase reporter
T3 construct: Two-hybrid bait expressed from the Ubi promoter in barley aleurone cells
Description: as §1

Row | Binder | binding result [1] | binding result [2] | binding result [3]
1 | GAD-OsMYBS1 fusion protein (other, Two-hybrid prey expressed from the Ubi promoter in barley aleurone cells; not shown: limits not) MTSQAATTTTTAAAAAAWTREDDKAFENALAACAAPPPADGGAPDDDWFAALAASVPGARSAEEVRRHYEALVEDVAAIDAGRVPLPRYAGEESAAPPDGAGAAAAASKDGGHRRDERKGGGGGYDGGKSCSKAEQERRKGIPWTEEEHRLFLLGLDKFGKGDWRSISRNFVISRTPTQVASHAQKYFIRLNSMNRDRRRSSIHDITSVTAGDQVAAQQGAPITGHQATGNPAAAALGPPGMKHHHHHHPGGAPPPMPMYSAAPMGHPVAGHMVPAAVGTPVVFPPGHAPYVVPVGYPAPPAKMHQ | no binding | no binding | –
2 | GAD-OsMYBS3 fusion protein (other, Two-hybrid prey expressed from the Ubi promoter in barley aleurone cells; not shown: limits not) MTRRCSHCSHNGHNSRTCPNRGVKIFGVRLTDGSIRKSASMGNLSLLSSAAGSTSGGASPADGPDAAPTAADGYASDDFVQGFSSATRDRKKGVPWTEEEHRRFLLGLQKLGKGDWRGISRNFVVSRTPTQVASHAQKYFIRQSNMTRRKRRSSLFDMVPDESMDLPPLPGGQEPETQVLNQPALPPPKEEEEVDSMESDTSAVAESSSASAIMPDNLQSTYPVIVPAYFSPFLQFSVPFWQNQKDEDGPVQETHEIVKPVPVHSKSPINVDELVGMSKLSIGESNQETESTSLSLNLVGGQNRQSAFHANPPTRAQA | no binding | no binding | no binding
